Laboratory results as given in patent US20070100561.

Assays:
[1] = target: enzymatically deglycosylated soluble extracellular domain of human dipeptidyl peptidase IV (sDPP-IVdeglycos; residues 31-766)
[2] = target: enzymatically deglycosylated soluble extracellular domain of human DPP-IV (sDPP-IVdeglycos)
Sequence of enzymatically deglycosylated soluble extracellular domain of human DPP-IV (sDPP-IVdeglycos) (chain, as listed by the source): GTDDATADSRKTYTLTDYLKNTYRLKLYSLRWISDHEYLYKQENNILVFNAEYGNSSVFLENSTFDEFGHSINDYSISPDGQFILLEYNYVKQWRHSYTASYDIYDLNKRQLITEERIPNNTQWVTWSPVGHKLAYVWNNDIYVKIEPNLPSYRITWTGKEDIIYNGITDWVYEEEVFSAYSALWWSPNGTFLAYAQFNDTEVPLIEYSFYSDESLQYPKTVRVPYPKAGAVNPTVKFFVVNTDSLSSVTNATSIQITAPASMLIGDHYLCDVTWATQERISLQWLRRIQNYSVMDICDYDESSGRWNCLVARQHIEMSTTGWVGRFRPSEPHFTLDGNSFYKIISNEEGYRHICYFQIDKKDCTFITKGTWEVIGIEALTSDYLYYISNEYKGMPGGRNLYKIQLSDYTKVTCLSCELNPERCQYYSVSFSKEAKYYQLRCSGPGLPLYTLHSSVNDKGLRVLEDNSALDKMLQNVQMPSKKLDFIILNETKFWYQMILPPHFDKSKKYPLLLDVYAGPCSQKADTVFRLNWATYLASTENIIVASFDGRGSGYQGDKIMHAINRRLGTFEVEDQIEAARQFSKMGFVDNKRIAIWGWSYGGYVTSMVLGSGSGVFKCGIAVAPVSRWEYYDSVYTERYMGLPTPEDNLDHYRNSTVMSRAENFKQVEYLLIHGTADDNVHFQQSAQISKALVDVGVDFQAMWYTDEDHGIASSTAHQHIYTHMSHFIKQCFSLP

Sequence of enzymatically deglycosylated soluble extracellular domain of human dipeptidyl peptidase IV (sDPP-IVdeglycos; residues 31-766) (chain, as listed by the source): as above

B1: adenosine deaminase (ADA; Sigma Type IV, from calf intestinal mucosa) (protein)
chain: AQTPAFNKPKVELHVHLDGAIKPETILYYGRKRGIALPADTPEELQNIIGMDKPLSLPEFLAKFDYYMPAIAGCREAVKRIAYEFVEMKAKDGVVYVEVRYSPHLLANSKVEPIPWNQAEGDLTPDEVVSLVNQGLQEGERDFGVKVRSILCCMRHQPSWSSEVVELCKKYREQTVVAIDLAGDETIEGSSLFPGHVKAYAEAVKSGVHRTVHAGEVGSANVVKEAVDTLKTERLGHGYHTLEDATLYNRLRQENMHFEVCPWSSYLTGAWKPDTEHPVVRFKNDQVNYSLNTDDPLIFKSTLDTDYQMTKNEMGFTEEEFKRLNINAAKSSFLPEDEKKELLDLLYKAYGMPSPA
DPP-IV activity [1]: confirming the independence of DPP-IV activity on ADA binding | KM (enzyme activity of DPP-IV in the complex with ADA) [2]: 14.8 µM | kcat (enzyme activity of DPP-IV in the complex with ADA) [2]: 39.6 s⁻¹ | kcat/KM (enzyme activity of DPP-IV in the complex with ADA) [2]: 2.68 µM⁻¹ s⁻¹
